The source of these data is article PMC2120335 (The Journal of Cell Biology, 1995).

This series deals with the molecule itself. Nature of the series: negative-stain electron microscopy + sedimentation assay.

B1: 454C, COOH-terminal half of scruin (domain or fragment)
chain: MQQGDSSGSTMLEGNDRISGRIRTYISGYRPLPPDQDDLSKELVPVSIPFWPPDPDTTDSVFHTVRDQYRNPEEQMGFKHFYTIPRQMDPNLGMLLFMDEDYQHSKKVLGLRSVESVPYYINRFQASGTIQDNTIPVIIGTGGVDLRDPMNIAYGRSVFQYHPLKDRWEFFGYMPQPRNYHAAAYYRSAIYITGGYDPDVRTWGEMVATKTTFVYELASKNWTRMGDMRCARSHHSLLVFNDVLYAIGGRDDIGRLVSSVESYDHESNEWTMEKSMPSPRMGMAAVAHGGYIWLLGGLTSMTTEEPPVLDDVLCYDPVFKHWVDGRPLRIGRAFGNAAVCDNKIWLCGGAAPSTDENNYLVSVPAIDVYDEETMEWKQKTSLGCPRHSAIVVALESCLYIAGGVNSHELSATSRNELYMVDNDTIQTVRELPIPLTGMAAVTIPPKCVTFRSESLSIMIRHKVTP
Consider B1, for which the binding result was “binds”.

B2: 590C, smaller COOH-terminal fragment of scruin (domain or fragment)
chain: VIIGTGGVDLRDPMNIAYGRSVFQYHPLKDRWEFFGYMPQPRNYHAAAYYRSAIYITGGYDPDVRTWGEMVATKTTFVYELASKNWTRMGDMRCARSHHSLLVFNDVLYAIGGRDDIGRLVSSVESYDHESNEWTMEKSMPSPRMGMAAVAHGGYIWLLGGLTSMTTEEPPVLDDVLCYDPVFKHWVDGRPLRIGRAFGNAAVCDNKIWLCGGAAPSTDENNYLVSVPAIDVYDEETMEWKQKTSLGCPRHSAIVVALESCLYIAGGVNSHELSATSRNELYMVDNDTIQTVRELPIPLTGMAAVTIPPKCVTFRSESLSIMIRHKVTP
Take B2: the binding result is “binds”.
